IntAct's records for PubMed 9891048

B1: DNA damage checkpoint control protein RAD17 (Saccharomyces cerevisiae), P48581 (parent)
chain: MRINSELANKFSASTVHLEHITTALSCLTPFGSKDDVLIFIDADGLSFVRENNHVIKIQLLLSRELFMSYSYRNETEDHMKLCVKINHILDSVSVMNRNSDDIVECTLSYDGHGSPFVLIFEDSFISERVEYSTYLIKDFDTNGLELDRERISFEAIIKGEALHSALKDLKEIGCKECYVYAKTEANDENVFALISKSQLGFSKIKLPSNRSILEKLQVFDGDSTTVIDGFAVIGFFDFTSFDKIRKSTKIASKVLFRMDVHGVLSVNILSQTDDVIITDTTRPSNNRPGSIRQLQLPKDYPGIVIEVCMLEKESIDEAAQTEIELLMETNELGNRNSFKKSTIRKRYGTDKGNETSNDNLLQLNGKKIKLPSEEENNKNRESEDEENHCKYPTKDIPIFF
partner: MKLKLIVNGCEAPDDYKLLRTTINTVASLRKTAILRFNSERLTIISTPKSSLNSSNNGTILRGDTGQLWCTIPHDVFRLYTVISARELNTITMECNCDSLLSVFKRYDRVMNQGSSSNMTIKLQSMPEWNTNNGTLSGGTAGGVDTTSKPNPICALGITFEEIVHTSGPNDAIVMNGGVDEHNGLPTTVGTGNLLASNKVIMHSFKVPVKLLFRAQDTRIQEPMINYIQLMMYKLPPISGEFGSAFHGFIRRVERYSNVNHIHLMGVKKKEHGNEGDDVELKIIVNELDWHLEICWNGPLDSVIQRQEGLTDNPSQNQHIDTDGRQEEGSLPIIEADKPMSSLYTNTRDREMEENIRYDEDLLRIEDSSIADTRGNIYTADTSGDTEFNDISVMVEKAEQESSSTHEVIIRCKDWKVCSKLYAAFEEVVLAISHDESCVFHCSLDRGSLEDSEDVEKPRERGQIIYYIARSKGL

Variants of: B1
Conditions: with mec3_yeast MEC3, Q02574

Row | effect of a mutation on the interaction | Variant
1 | decreasing interaction | E128K
